Reference: FireProtDB (doi:10.1021/bi060038+)

B1: Phosphocarrier protein HPr, P08877 (parent)
chain: MAQKTFKVTADSGIHARPATVLVQTASKYDADVNLEYNGKTVNLKSIMGVMSLGIAKGAEITISASGADENDALNALEETMKSEGLGE

Variants of: B1
Details: Bacillus subtilis (strain 168), pH 7, CD, sodium phosphate 10 mM, reversible: Yes, structure 2HPR, whole UniProt chain shown; for ddG of mutation (higher = less stable) / denaturant m value / unfolding free energy: 25 °C; for Tm / change of melting temperature, mutant - wild type (higher = more stable) / unfolding enthalpy (van 't Hoff): Thermal

Row | Variant | ddG of mutation (higher = less stable) (GdnHCl) | denaturant m value (GdnHCl) | unfolding free energy (GdnHCl) | Tm | change of melting temperature, mutant - wild type (higher = more stable) | unfolding enthalpy (van 't Hoff) | ddG of mutation (higher = less stable) (Urea) | denaturant m value (Urea) | unfolding free energy (Urea)
1 | A2R N71E | -1.5 kcal/mol | 3.39 kcal/mol/M | 4.9 kcal/mol | 83.1 °C | 10.1 °C | 91 kcal/mol |  |  | 
2 | A2K N71E | -1.1 kcal/mol | 3.37 kcal/mol/M | 4.5 kcal/mol | 79.6 °C | 6.6 °C | 85 kcal/mol | -1.1 kcal/mol | 0.95 kcal/mol/M | 6.1 kcal/mol
